The results in this text go back to article PMC9352680, “A comprehensive thermodynamic model for RNA binding by the Saccharomyces cerevisiae Pumilio protein PUF4”.

The data set addresses T1, PUF4 RNA-binding domain (Saccharomyces cerevisiae, UniProt P25339 537-888).
T1 sequence: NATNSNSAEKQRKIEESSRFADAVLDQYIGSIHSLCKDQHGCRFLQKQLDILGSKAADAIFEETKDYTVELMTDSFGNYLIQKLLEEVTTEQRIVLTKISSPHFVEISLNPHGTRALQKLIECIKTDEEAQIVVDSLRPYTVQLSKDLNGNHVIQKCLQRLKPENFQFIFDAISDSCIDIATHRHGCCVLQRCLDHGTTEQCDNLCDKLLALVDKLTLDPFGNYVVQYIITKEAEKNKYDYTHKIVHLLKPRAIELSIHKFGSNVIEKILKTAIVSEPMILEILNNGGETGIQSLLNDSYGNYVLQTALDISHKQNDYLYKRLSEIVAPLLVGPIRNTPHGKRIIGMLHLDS
Kind of data set: Mg; RNA-MaP; 20 mM Na-HEPES pH 7.4, 30 mM KOAc, 0.75 mM MgCl2, 0.1% Tween-20, 5% glycerol, 0.1 mg/mL BSA, 2 mM DTT; 25 C; 0.0125-409.6 nM protein. The note with it: tags: N-His6-TEV cleaved; C-SNAP kept, Cy3B-labelled; label: tethered on chip by stalled RNA polymerase.

B1: Ic_S1_P4E.1_K4.1_C4.1_H4.1_A4.1_[A6T]_[T7A]_F4.1_[T8A]_T4.1 (ssRNA)
RNA: UCUCUUUGUAUUAAAUCUCUU
In the case of B1, the Kd (usually the constant that tells how readily two partners part at equilibrium) is 95.4 nM.

B2: Ic_S1_P5E.1_K5.1_C5.1_H5.1_A5.1_[T5A]_[T6C]_[A7C]_F5.1_[T8G]_[T9C]_[A10C]_T5.1 (ssRNA)
RNA: UCUCUUUGUAACCGCCUCUCUU
B2 had a dissociation constant (Kd) of 2070 nM.

B3: Ic_S1_P4E.1_K4.1_C4.1_H4.1_A4.1_[A6T]_[T7A]_F4.1_[T8C]_[A9G]_T4.1 (ssRNA)
RNA: UCUCUUUGUAUUACGUCUCUU
Molecule B3 gave a Kd of 844 nM.

B4: Ic_S1_P4E.1_K4.1_C4.1_H4.1_A4.1_[A6T]_F4.1_[T8C]_[A9G]_T4.1 (ssRNA)
RNA: UCUCUUUGUAUUUCGUCUCUU
The molecule B4 had a dissociation constant Kd of 462 nM.

B5: Ic_S1_P4E.1_K4.1_C4.1_H4.1_A4.1_[T7A]_F4.1_[T8C]_[A9C]_T4.1 (ssRNA)
RNA: UCUCUUUGUAUAACCUCUCUU
For B5, the Kd amounted to 62.8 nM.

B6: Ic_S1_P4E.1_K4.1_C4.1_H4.1_A4.1_[A6T]_F4.1_[T8C]_[A9C]_T4.1 (ssRNA)
RNA: UCUCUUUGUAUUUCCUCUCUU
Turning to B6, binding was put at a Kd of 313 nM.

B7: Ic_S1_P4E.1_K4.1_C4.1_H4.1_A4.1_[A6T]_[T7A]_F4.1_[A9C]_T4.1 (ssRNA)
RNA: UCUCUUUGUAUUAUCUCUCUU
B7 had a Kd of 19.3 nM.

B8: Ic_S1_P4E.1_K4.1_C4.1_H4.1_A4.1_[T7A]_F4.1_[T8A]_[A9T]_T4.1 (ssRNA)
RNA: UCUCUUUGUAUAAAUUCUCUU
Molecule B8 yielded a dissociation constant Kd of 67.2 nM.

B9: Ic_S1_P4E.1_K4.1_C4.1_H4.1_A4.1_[A6T]_F4.1_[T8A]_[A9C]_T4.1 (ssRNA)
RNA: UCUCUUUGUAUUUACUCUCUU
For the molecule B9, binding was characterised by a dissociation constant (Kd) of 74.9 nM.

B10: Ic_S1_P4E.1_K4.1_C4.1_H4.1_A4.1_[T7C]_F4.1_[T8C]_[A9G]_T4.1 (ssRNA)
RNA: UCUCUUUGUAUACCGUCUCUU
Consider B10, for which the affinity, expressed as Kd, was 542 nM.

B11: Ic_S1_P4E.1_K4.1_C4.1_H4.1_A4.1_[A6T]_F4.1_[T8A]_[A9G]_T4.1 (ssRNA)
RNA: UCUCUUUGUAUUUAGUCUCUU
On to B11, for which the equilibrium dissociation constant (Kd) was found to be 25.3 nM.

B12: Ic_S1_P4E.1_K4.1_C4.1_H4.1_A4.1_[T7G]_F4.1_[T8C]_[A9C]_T4.1 (ssRNA)
RNA: UCUCUUUGUAUAGCCUCUCUU
In the case of B12, the Kd is 108 nM.

B13: Ic_S1_P4E.1_K4.1_C4.1_H4.1_A4.1_[A6T]_[T7A]_F4.1_[A9T]_T4.1 (ssRNA)
RNA: UCUCUUUGUAUUAUUUCUCUU
B13 came in with a dissociation constant (Kd) of 12.6 nM.

B14: Ic_S1_P5E.1_K5.1_C5.1_H5.1_A5.1_F5.1_[T8C]_[T9A]_[A10T]_T5.1 (ssRNA)
RNA: UCUCUUUGUAUUACAUUCUCUU
Regarding B14, the Kd came to 121 nM.

B15: Ic_S1_P4E.1_K4.1_C4.1_H4.1_A4.1_[T7C]_F4.1_[T8A]_[A9C]_T4.1 (ssRNA)
RNA: UCUCUUUGUAUACACUCUCUU
Take B15: the dissociation constant Kd amounted to 118 nM.

B16: Ic_S1_P4E.1_K4.1_C4.1_H4.1_A4.1_[T7A]_F4.1_[T8C]_[A9T]_T4.1 (ssRNA)
RNA: UCUCUUUGUAUAACUUCUCUU
As to B16, the Kd was found to be 44.2 nM.

B17: Ic_S1_P5E.1_K5.1_C5.1_H5.1_A5.1_[T6C]_[A7T]_F5.1_[T9A]_[A10G]_T5.1 (ssRNA)
RNA: UCUCUUUGUAUCUUAGUCUCUU
In turn, B17 displayed a Kd of 3.71 nM.

B18: Ic_S1_P5E.1_K5.1_C5.1_H5.1_A5.1_[T5A]_[A7G]_F5.1_[T8C]_[T9A]_[A10T]_T5.1 (ssRNA)
RNA: UCUCUUUGUAAUGCAUUCUCUU
Consider B18, for which the affinity, expressed as Kd, was 910 nM.

B19: Ic_S1_P5E.1_K5.1_C5.1_H5.1_A5.1_[T5C]_[T6C]_F5.1_[T8A]_[T9C]_[A10C]_T5.1 (ssRNA)
RNA: UCUCUUUGUACCAACCUCUCUU
B19 registered a Kd of 556 nM.

B20: Ic_S1_P4E.1_K4.1_C4.1_H4.1_A4.1_[A6T]_[T7A]_F4.1_[T8A]_[A9T]_T4.1 (ssRNA)
RNA: UCUCUUUGUAUUAAUUCUCUU
B20: the affinity, expressed as Kd, was 86.5 nM.

B21: Ic_S1_P5E.1_K5.1_C5.1_H5.1_A5.1_[T5A]_[A7C]_F5.1_[T8A]_[T9C]_[A10C]_T5.1 (ssRNA)
RNA: UCUCUUUGUAAUCACCUCUCUU
B21 gave a Kd of 1200 nM.

B22: Ic_S1_P4E.1_K4.1_C4.1_H4.1_A4.1_[A6T]_F4.1_[T8G]_[A9G]_T4.1 (ssRNA)
RNA: UCUCUUUGUAUUUGGUCUCUU
B22 displayed a Kd of 630 nM.

B23: Ic_S1_P4E.1_K4.1_C4.1_H4.1_A4.1_[T7G]_F4.1_[T8C]_[A9G]_T4.1 (ssRNA)
RNA: UCUCUUUGUAUAGCGUCUCUU
Consider B23, for which the dissociation constant (Kd) was determined as 283 nM.

B24: Ic_S1_P4E.1_K4.1_C4.1_H4.1_A4.1_[T7C]_F4.1_[T8A]_[A9T]_T4.1 (ssRNA)
RNA: UCUCUUUGUAUACAUUCUCUU
As to B24, binding was put at a Kd of 48.5 nM.

B25: Ic_S1_P4E.1_K4.1_C4.1_H4.1_A4.1_[A6T]_[T7A]_F4.1_[T8C]_[A9C]_T4.1 (ssRNA)
RNA: UCUCUUUGUAUUACCUCUCUU
In the case of B25, the Kd was 511 nM.

B26: Ic_S1_P4E.1_K4.1_C4.1_H4.1_A4.1_[A6T]_[T7A]_F4.1_[T8C]_[A9T]_T4.1 (ssRNA)
RNA: UCUCUUUGUAUUACUUCUCUU
As to B26, the Kd stood at 49.6 nM.

B27: Ic_S1_P4E.1_K4.1_C4.1_H4.1_A4.1_[T7C]_F4.1_[T8G]_[A9G]_T4.1 (ssRNA)
RNA: UCUCUUUGUAUACGGUCUCUU
In turn, B27 registered a Kd of 683 nM.

B28: Ic_S1_P4E.1_K4.1_C4.1_H4.1_A4.1_[A6T]_F4.1_[T8A]_[A9T]_T4.1 (ssRNA)
RNA: UCUCUUUGUAUUUAUUCUCUU
B28 displayed a Kd of 31.8 nM.

B29: Ic_S1_P5E.1_K5.1_C5.1_H5.1_A5.1_[T5G]_[A7T]_F5.1_[T9C]_[A10C]_T5.1 (ssRNA)
RNA: UCUCUUUGUAGUUUCCUCUCUU
The molecule B29 had a Kd of 479 nM.

B30: Ic_S1_P4E.1_K4.1_C4.1_H4.1_A4.1_[T7C]_F4.1_[T8G]_[A9C]_T4.1 (ssRNA)
RNA: UCUCUUUGUAUACGCUCUCUU
Turning to B30, the dissociation constant (Kd) is 367 nM.

B31: Ic_S1_P4E.1_K4.1_C4.1_H4.1_A4.1_[T7A]_F4.1_[T8A]_[A9C]_T4.1 (ssRNA)
RNA: UCUCUUUGUAUAAACUCUCUU
B31: the Kd stood at 70 nM.

B32: Ic_S1_P5E.1_K5.1_C5.1_H5.1_A5.1_[T5C]_[T6C]_[A7T]_F5.1_[T8A]_[T9A]_[A10C]_T5.1 (ssRNA)
RNA: UCUCUUUGUACCUAACUCUCUU
For B32, binding was characterised by a dissociation constant (Kd) of 65.6 nM.

B33: Ic_S1_P5E.1_K5.1_C5.1_H5.1_A5.1_[A7C]_F5.1_[T8C]_[T9C]_[A10T]_T5.1 (ssRNA)
RNA: UCUCUUUGUAUUCCCUUCUCUU
On to B33, for which the dissociation constant (Kd) turned out to be 653 nM.

B34: Ib_S1_P3E.1_K3.1_C3.1_H3.1_A3.1_[T5C]_F3.1_[A8C]_T3.1 (ssRNA)
RNA: UCUCUUUGUACAUCUCUCUU
As for B34, binding was put at a Kd of 15.9 nM.

B35: Ic_S1_P4E.1_K4.1_C4.1_H4.1_A4.1_[T7C]_F4.1_[T8A]_[A9G]_T4.1 (ssRNA)
RNA: UCUCUUUGUAUACAGUCUCUU
Regarding B35, the Kd was found to be 95.6 nM.

B36: Ic_S1_P3E.1_K3.1_C3.1_H3.1_A3.1_[T5C]_F3.1_[A8T]_T3.1 (ssRNA)
RNA: UCUCUUUGUACAUUUCUCUU
The molecule B36 gave a Kd of 5.42 nM.

B37: Ic_S1_P4E.1_K4.1_C4.1_H4.1_A4.1_[A6T]_F4.1_[T8G]_[A9C]_T4.1 (ssRNA)
RNA: UCUCUUUGUAUUUGCUCUCUU
For the molecule B37, the dissociation constant (Kd) worked out at 350 nM.

B38: Ic_S1_P3E.1_K3.1_C3.1_H3.1_A3.1_[T5A]_F3.1_[A8C]_T3.1 (ssRNA)
RNA: UCUCUUUGUAAAUCUCUCUU
For B38, binding was characterised by a dissociation constant (Kd) of 343 nM.

B39: Ic_S1_P3E.1_K3.1_C3.1_H3.1_A3.1_[T5A]_F3.1_[A8G]_T3.1 (ssRNA)
RNA: UCUCUUUGUAAAUGUCUCUU
With B39, binding was put at a Kd of 97.5 nM.

B40: Ic_S1_P4E.1_K4.1_C4.1_H4.1_A4.1_F4.1_T4.1 (ssRNA)
RNA: UCUCUUUGUAUAUUAUCUCUU
The molecule B40 gave a dissociation constant (Kd) of 0.576 nM.

B41: Ic_S1_P5E.1_K5.1_C5.1_H5.1_A5.1_[T5C]_[T6G]_[A7C]_F5.1_[T8A]_[A10G]_T5.1 (ssRNA)
RNA: UCUCUUUGUACGCAUGUCUCUU
B41 showed an equilibrium dissociation constant (Kd) of 581 nM.

B42: Ic_S1_P4E.1_K4.1_C4.1_H4.1_A4.1_[T7C]_F4.1_[T8C]_[A9C]_T4.1 (ssRNA)
RNA: UCUCUUUGUAUACCCUCUCUU
As to B42, the Kd was found to be 93.4 nM.

B43: Ic_S1_P4E.1_K4.1_C4.1_H4.1_A4.1_[A6T]_[T7A]_F4.1_[A9G]_T4.1 (ssRNA)
RNA: UCUCUUUGUAUUAUGUCUCUU
For the molecule B43, the Kd amounted to 10.8 nM.

B44: Ic_S1_P5E.1_K5.1_C5.1_H5.1_A5.1_[T5C]_[T6A]_[A7G]_F5.1_[T8C]_[T9C]_T5.1 (ssRNA)
RNA: UCUCUUUGUACAGCCAUCUCUU
With B44, the affinity, expressed as Kd, was 316 nM.

B45: Ic_S1_P4E.1_K4.1_C4.1_H4.1_A4.1_[T7A]_F4.1_[T8C]_[A9G]_T4.1 (ssRNA)
RNA: UCUCUUUGUAUAACGUCUCUU
In turn, B45 gave a Kd of 42.3 nM.

B46: Ic_S1_P5E.1_K5.1_C5.1_H5.1_A5.1_[T6A]_[A7T]_F5.1_[T8C]_[T9G]_T5.1 (ssRNA)
RNA: UCUCUUUGUAUAUCGAUCUCUU
Turning to B46, the Kd worked out at 38.9 nM.
